Test results taken from article doi:10.1101/2025.09.05.674523 (bioRxiv, 2025).

Key:
Assay in all cases: AlphaScreen or HTRF
[1] = biological target: full-length recombinant mouse EPPIN (mEPPIN; L24-T134) (mouse) (UniProt Q9DA01)
mEPPIN^L24-K68 (mouse) = mEPPIN^L24-K68 (mouse) (UniProt Q9DA01)
[2] = biological target: T1, full-length recombinant mouse EPPIN (mEPPIN; L24-T134) (mouse, UniProt Q9DA01 24-134)
T1 sequence (looked up): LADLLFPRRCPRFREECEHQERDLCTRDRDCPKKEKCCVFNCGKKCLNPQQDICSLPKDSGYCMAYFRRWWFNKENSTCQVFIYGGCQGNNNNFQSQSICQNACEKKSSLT

[3] = biological target: full-length recombinant mouse SEMG1 (mSEMG1; Q32-G375) (mouse)

Question: “full-length recombinant mouse SEMG1 (mSEMG1; Q32-G375) (natural protein)” was tested. Which EC50 [1] did it give?
Answer: 23.6 nM

Question: What about the reduction in the specific signal compared to full-length EPPIN (mEPPIN^L24-K68 (mouse)) of the same molecule?
Answer: 75%

B1: recombinant human SEMG1 (hSEMG1, G26-R281) (domain or fragment, UniProt P04279 26-281, looked up)
chain: GGSKGRLPSEFSQFPHGQKGQHYSGQKGKQQTESKGSFSIQYTYHVDANDHDQSRKSQQYDLNALHKTTKSQRHLGGSQQLLHNKQEGRDHDKSKGHFHRVVIHHKGGKAHRGTQNPSQDQGNSPSGKGISSQYSNTEERLWVHGLSKEQTSVSGAQKGRKQGGSQSSYVLQTEELVANKQQRETKNSHQNKGHYQNVVEVREEHSSKVQTSLCPAHQDKLQHGSKDIFSTQDELLVYNKNQHQTKNLNQDQQHGR
Question: B1 was tested. Which EC50 [2] did it give?
Answer: 8.3 nM

B2: full-length recombinant mouse EPPIN (mEPPIN; L24-T134) (natural protein)
chain: LADLLFPRRCPRFREECEHQERDLCTRDRDCPKKEKCCVFNCGKKCLNPQQDICSLPKDSGYCMAYFRRWWFNKENSTCQVFIYGGCQGNNNNFQSQSICQNACEKKSSLT
Question: With B2 as the molecule, how does the EC50 [3] read?
Answer: 1 nM
